Values quoted from earlier work in article PMC3686100.

Target: ClpP (Escherichia coli) (UniProt P0A6G7)
Sequence of UniProt P0A6G7 (P0A6G7 15-207): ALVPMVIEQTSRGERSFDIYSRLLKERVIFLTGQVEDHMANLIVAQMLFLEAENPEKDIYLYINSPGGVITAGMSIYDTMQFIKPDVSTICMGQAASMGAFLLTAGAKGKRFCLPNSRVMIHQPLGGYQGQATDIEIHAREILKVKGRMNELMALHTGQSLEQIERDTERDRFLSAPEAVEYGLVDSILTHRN

- Kd: 90 nM
Substance: ClpX (from UniProt P0A6H1)
